Test results as given in the supplement of paper PMC11246515.
± gives the standard deviation of the averaged measurements.

Test: total protein half-life in vivo (active degradation + dilution); higher = more stable protein
[1] = E. coli NCM3722 delta-clpP delta-lon delta-hslV, growth: N-lim chemostat, doubling time 6 h
[2] = E. coli NCM3722 delta-clpP, growth: N-lim chemostat, doubling time 6 h
[3] = E. coli NCM3722 delta-hslV, growth: N-lim chemostat, doubling time 6 h
[4] = E. coli NCM3722 delta-lon, growth: N-lim chemostat, doubling time 6 h
[5] = E. coli NCM3722 delta-smpB, growth: N-lim chemostat, doubling time 6 h
[6] = wild type E. coli NCM3722, growth: C-lim chemostat, doubling time 3 h
[7] = wild type E. coli NCM3722, growth: C-lim chemostat, doubling time 6 h
[8] = wild type E. coli NCM3722, growth: C-lim chemostat, doubling time 12 h
[9] = wild type E. coli NCM3722, growth: N-lim chemostat, doubling time 6 h
[10] = wild type E. coli NCM3722, growth: N-lim chemostat, doubling time 12 h
[11] = wild type E. coli NCM3722, growth: P-lim chemostat, doubling time 6 h
[12] = wild type E. coli NCM3722, growth: P-lim chemostat, doubling time 12 h

For “MSWQEKINAALDARRAADALRRRYPVAQGAGRWLVADDRQYLNFSSNDYLGLSHHPQIIRAWQQGAEQFGIGSGGSGHVSGYSVVHQALEEELAEWLGYSRALLFISGFAANQAVIAAMMAKEDRIAADRLSHASLLEAASLSPSQLRRFAHNDVTHLARLLASPCPGQQMVVTEGVFSMDGDSAPLAEIQQVTQQHNGWLMVDDAHGTGVIGEQGRGSCWLQKVKPELLVVTFGKGFGVSGAAVLCSSTVADYLLQFARHLIYSTSMPPAQAQALRASLAVIRSDEGDARREKLAALITRFRAGVQDLPFTLADSCSAIQPLIVGDNSRALQLAEKLRQQGCWVTAIRPPTVPAGTARLRLTLTAAHEMQDIDRLLEVLHGNG”, the “total protein half-life in vivo” value [1] was 4.06 ± 0.98 h, the “total protein half-life in vivo” value [2] was 3.57 ± 0.11 h and the “total protein half-life in vivo” value [3] was 3.29 ± 0.14 h. The “total protein half-life in vivo” value [4] was 3.88 ± 0.17 h, the “total protein half-life in vivo” value [5] was 3.54 ± 0.15 h and the “total protein half-life in vivo” value [6] was 3.07 ± 0.22 h. The “total protein half-life in vivo” value [7] was 5.16 ± 0.21 h, the “total protein half-life in vivo” value [8] was 8.97 ± 0.33 h and the “total protein half-life in vivo” value [9] was 3.58 ± 0.21 h. For the same sequence, the “total protein half-life in vivo” value [10] was 5.24 ± 0.38 h, the “total protein half-life in vivo” value [11] was 5.643 ± 0.044 h and the “total protein half-life in vivo” value [12] was 10.9 ± 0.2 h.

With “MSILTRWLLIPPVNARLIGRYRDYRRHGASAFSATLGCFWMILAWIFIPLEHPRWQRIRAEHKNLYPHINASRPRPLDPVRYLIQTCWLLIGASRKETPKPRRRAFSGLQNIRGRYHQWMNELPERVSHKTQHLDEKKELGHLSAGARRLILGIIVTFSLILALICVTQPFNPLAQFIFLMLLWGVALIVRRMPGRFSALMLIVLSLTVSCRYIWWRYTSTLNWDDPVSLVCGLILLFAETYAWIVLVLGYFQVVWPLNRQPVPLPKDMSLWPSVDIFVPTYNEDLNVVKNTIYASLGIDWPKDKLNIWILDDGGREEFRQFAQNVGVKYIARTTHEHAKAGNINNALKYAKGEFVSIFDCDHVPTRSFLQMTMGWFLKEKQLAMMQTPHHFFSPDPFERNLGRFRKTPNEGTLFYGLVQDGNDMWDATFFCGSCAVIRRKPLDEIGGIAVETVTEDAHTSLRLHRRGYTSAYMRIPQAAGLATESLSAHIGQRIRWARGMVQIFRLDNPLTGKGLKFAQRLCYVNAMFHFLSGIPRLIFLTAPLAFLLLHAYIIYAPALMIALFVLPHMIHASLTNSKIQGKYRHSFWSEIYETVLAWYIAPPTLVALINPHKGKFNVTAKGGLVEEEYVDWVISRPYIFLVLLNLVGVAVGIWRYFYGPPTEMLTVVVSMVWVFYNLIVLGGAVAVSVESKQVRRSHRVEMTMPAAIAREDGHLFSCTVQDFSDGGLGIKINGQAQILEGQKVNLLLKRGQQEYVFPTQVARVMGNEVGLKLMPLTTQQHIDFVQCTFARADTWALWQDSYPEDKPLESLLDILKLGFRGYRHLAEFAPSSVKGIFRVLTSLVSWVVSFIPRRPERSETAQPSDQALAQQ” the “total protein half-life in vivo” value [1] was 3.59 h, the “total protein half-life in vivo” value [2] was 3.59 ± 0.068 h and the “total protein half-life in vivo” value [3] was 3.23 ± 0.15 h. For the same sequence, the “total protein half-life in vivo” value [5] was 3.25 ± 0.049 h, the “total protein half-life in vivo” value [6] was 2.31 ± 0.24 h and the “total protein half-life in vivo” value [7] was 3.01 ± 0.81 h. The “total protein half-life in vivo” value [8] was 4.36 h, the “total protein half-life in vivo” value [10] was 8.41 h and the “total protein half-life in vivo” value [11] was 3.59 ± 0.75 h. The “total protein half-life in vivo” value [12] was 6.3 ± 0.43 h.

For “MPKIVILPHQDLCPDGAVLEANSGETILDAALRNGIEIEHACEKSCACTTCHCIVREGFDSLPESSEQEDDMLDKAWGLEPESRLSCQARVTDEDLVVEIPRYTINHAREH [P0A9R4]”, the “total protein half-life in vivo” value [1] was 4.926 ± 0.026 h, the “total protein half-life in vivo” value [2] was 5.96 ± 1.3 h and the “total protein half-life in vivo” value [3] was 4.83 ± 0.91 h. The “total protein half-life in vivo” value [4] was 6.22 ± 1.6 h, the “total protein half-life in vivo” value [5] was 3.67 ± 0.56 h and the “total protein half-life in vivo” value [6] was 3.16 ± 0.84 h. The “total protein half-life in vivo” value [8] was 6.59 ± 0.084 h, the “total protein half-life in vivo” value [9] was 4.05 ± 0.7 h and the “total protein half-life in vivo” value [10] was 8.81 ± 2.2 h. The “total protein half-life in vivo” value [11] was 5.22 ± 0.39 h and the “total protein half-life in vivo” value [12] was 10.8 ± 0.6 h.

With “MCELLGMSANVPTDICFSFTGLVQRGGGTGPHKDGWGITFYEGKGCRTFKDPQPSFNSPIAKLVQDYPIKSCSVVAHIRQANRGEVALENTHPFTRELWGRNWTYAHNGQLTGYKSLETGNFRPVGETDSEKAFCWLLHKLTQRYPRTPGNMAAVFKYIASLADELRQKGVFNMLLSDGRYVMAYCSTNLHWITRRAPFGVATLLDQDVEIDFSSQTTPNDVVTVIATQPLTGNETWQKIMPGEWRLFCLGERVV” the “total protein half-life in vivo” value [1] was 6.35 ± 0.88 h, the “total protein half-life in vivo” value [2] was 5.84 ± 0.22 h and the “total protein half-life in vivo” value [3] was 5.68 ± 0.45 h. For the same sequence, the “total protein half-life in vivo” value [4] was 6.32 ± 0.5 h, the “total protein half-life in vivo” value [5] was 5.67 ± 0.13 h and the “total protein half-life in vivo” value [6] was 3.37 ± 0.54 h. For the same sequence, the “total protein half-life in vivo” value [7] was 6.2 ± 0.066 h, the “total protein half-life in vivo” value [8] was 12.6 ± 1.6 h and the “total protein half-life in vivo” value [9] was 5.695 ± 0.045 h. The “total protein half-life in vivo” value [10] was 12.2 ± 1.4 h, the “total protein half-life in vivo” value [11] was 5.83 ± 0.3 h and the “total protein half-life in vivo” value [12] was 12.5 ± 0.73 h.

In the case of “MKKTAIAIAVALAGFATVAQAAPKDNTWYTGAKLGWSQYHDTGFINNNGPTHENQLGAGAFGGYQVNPYVGFEMGYDWLGRMPYKGSVENGAYKAQGVQLTAKLGYPITDDLDIYTRLGGMVWRADTKSNVYGKNHDTGVSPVFAGGVEYAITPEIATRLEYQWTNNIGDAHTIGTRPDNGMLSLGVSYRFGQGEAAPVVAPAPAPAPEVQTKHFTLKSDVLFNFNKATLKPEGQAALDQLYSQLSNLDPKDGSVVVLGYTDRIGSDAYNQGLSERRAQSVVDYLISKGIPADKISARGMGESNPVTGNTCDNVKQRAALIDCLAPDRRVEIEVKGIKDVVTQPQA [P0A910]”, the “total protein half-life in vivo” value [1] is reported as 6.64 ± 0.48 h, the “total protein half-life in vivo” value [2] is reported as 6.96 ± 0.27 h and the “total protein half-life in vivo” value [3] is reported as 6.86 ± 0.49 h. For the same sequence, the “total protein half-life in vivo” value [4] was 7.032 ± 0.055 h, the “total protein half-life in vivo” value [5] was 5.84 ± 0.27 h and the “total protein half-life in vivo” value [6] was 3.41 ± 0.11 h. The “total protein half-life in vivo” value [7] was 6.7 ± 0.097 h, the “total protein half-life in vivo” value [8] was 13 ± 1.5 h and the “total protein half-life in vivo” value [9] was 6.3 ± 0.41 h. For the same sequence, the “total protein half-life in vivo” value [10] was 13.6 ± 0.81 h, the “total protein half-life in vivo” value [11] was 6.224 ± 0.024 h and the “total protein half-life in vivo” value [12] was 15 ± 0.76 h.

In the case of “MNTRQLLSVGIDIGTTTTQVIFSRLELVNRAAVSQVPRYEFIKREISWQSPVFFTPVDKQGGLKEAELKTLILEQYHAAGIEPESVDSGAIIITGESAKTRNARPAVMALSQSLGDFVVASAGPHLESVIAGHGAGAQTLSEQRLCRVLNIDIGGGTANYALFDAGKISGTACLNVGGRLLETDSHGRVVYAHKPGQMIVDECFGAGTDARSLTGAQLVQVTRRMAELIVEVIDGTLSPLAQALMQTGLLPAGVTPEIITLSGGVGECYRHQPADPFCFADIGPLLATALHDHPRLREMNVQFPAQTVRATVIGAGAHTLSLSGSTIWLEGVQLPLRNLPVAIPIDETDLVGAWQQALIQLDLDPKTDAYVLALPASLPVRYAAVLTVINALVDFVARFPNPHPLLVVAGQDFGKALGMLLRPQLQQLPLAVIDEVIVRAGDYIDIGTPLFGGSVVPVTVKSLAFPS”, the “total protein half-life in vivo” value [1] is reported as 5.67 h.
